As usually defined, the EC50 is the concentration needed to bring the measured effect to its halfway point. Read a low EC50 as greater potency.

Among the data in patent US20250304717A1, “CAMPTOTHECIN DERIVATIVE AND LIGAND-DRUG CONJUGATE” (HAINAN SIMCERE ZAIMING PHARMACEUTICAL CO., LTD., priority 2022, published 2025) are EC50 values, retold here.

To fix the notation:
T1: CDH6 on OVCAR3 cells (human, UniProt P55285 54-790)
T1 construct: whole, on cells; also called CDH6 positive cells OVCAR3; CDH6 high-expression cell strain
T1 sequence (looked up): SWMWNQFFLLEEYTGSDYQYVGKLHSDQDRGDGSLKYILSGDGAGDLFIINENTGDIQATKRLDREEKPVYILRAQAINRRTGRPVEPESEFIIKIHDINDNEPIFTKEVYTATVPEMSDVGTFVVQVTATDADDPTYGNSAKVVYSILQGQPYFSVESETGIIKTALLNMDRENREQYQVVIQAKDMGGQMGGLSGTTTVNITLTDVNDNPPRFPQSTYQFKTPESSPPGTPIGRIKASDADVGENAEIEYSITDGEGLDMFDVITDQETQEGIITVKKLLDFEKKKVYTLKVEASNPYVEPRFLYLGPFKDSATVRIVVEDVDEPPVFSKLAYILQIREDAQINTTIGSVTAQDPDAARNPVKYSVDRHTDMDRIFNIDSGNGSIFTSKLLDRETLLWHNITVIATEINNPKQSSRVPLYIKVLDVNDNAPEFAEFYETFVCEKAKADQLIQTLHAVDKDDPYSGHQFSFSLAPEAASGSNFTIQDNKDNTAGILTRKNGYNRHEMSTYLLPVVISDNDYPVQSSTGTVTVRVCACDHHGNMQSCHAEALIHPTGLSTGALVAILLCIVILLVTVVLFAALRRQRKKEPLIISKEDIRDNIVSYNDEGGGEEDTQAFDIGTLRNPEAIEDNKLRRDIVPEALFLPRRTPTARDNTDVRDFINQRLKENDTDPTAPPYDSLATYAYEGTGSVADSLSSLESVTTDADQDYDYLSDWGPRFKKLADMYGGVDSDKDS

B1: ADC-L1-19-5 (antibody, human IgG1, kappa, V domains shown)
VH: EVQLVQSGAEVKKPGASVKVSCKASGYTFTDNYINWVRQAPGQRLEWMGWIYPGTGNSYYNEKFKGRVTITVDTSASTAYMELSSLRSEDTAVYLCASSYGDSFDYWGQGTTVTVSS
VL: DIVMTQSPDSLAVSLGERATINCRASQDIRNYLNWYQQKPGQTPKLLISYTSRLHSGVPDRFSGSGSGTDFTLTISSLQAEDVAVYYCQQYSQLPWTFGGGTKVEIKR
modifications: drug-linker L1-19 on cysteine thiols after TCEP reduction; positions not given; DAR 6.8 for the whole conjugate
notes: Antibody-drug conjugate
B2: CDH6-Ab-2 (antibody, human IgG1, kappa, V domains shown)
VH: B1 VH
VL: B1 VL
notes: also called humanized anti-human CDH6 antibody CDH6-Ab-2
B3: ADC-L1-19-6 (antibody, human IgG1, kappa, V domains shown)
VH: EVQLVQSGAEVKKPGASVKVSCKASGYTFTDYYMAWVRQAPGQGLEWMGYIFPNSGGTDYSQKFKGRVTLTVDKSTSTVYMELSSLRSEDTAVYYCARELGADYGDYYAMDHWGQGTTVTVSS
VL: DIQMTQSPSSLSASVGDRVTITCRASENIDSYLAWYQQKPGKSPKLLVYSATLLADGVPSRFSGSGSGTDYTLTISSLQPEDFATYYCQHYYRTPPTFGQGTKLEIKR
modifications: drug-linker L1-19 on cysteine thiols after TCEP reduction; positions not given; DAR 7.4 for the whole conjugate
notes: Antibody-drug conjugate
B4: ADC-L1-19-P1-6 (antibody, human IgG1, kappa, V domains shown)
VH: B3 VH
VL: B3 VL
modifications: drug-linker L1-19-P1 on cysteine thiols after TCEP reduction; positions not given; DAR 8.0 for the whole conjugate
notes: Antibody-drug conjugate
B5: CDH6-Ab-3 (antibody, human IgG1, kappa, V domains shown)
VH: B3 VH
VL: B3 VL
notes: also called humanized anti-human CDH6 antibody CDH6-Ab-3
B6: ADC-L1-14-P1-3 (antibody, human IgG1, kappa, V domains shown)
VH: EVQLVQSGAEVKKPGASVKVSCKASGYTFTRNFMHWVRQAPGQGLEWMGWIYPGDGETEYAQKFQGRVTITADTSTSTAYMELSSLRSEDTAVYYCARGVYGGFAGGYFDFWGQGTLVTVSS
VL: DIQMTQSPSSLSASVGDRVTITCKASQNIYKNLAWYQQKPGKAPKLLIYDANTLQTGVPSRFSGSGSGSDFTLTISSLQPEDFATYFCQQYYSGWAFGQGTKVEIKR
modifications: drug-linker L1-14-P1 on cysteine thiols after TCEP reduction; positions not given; DAR 8.5 for the whole conjugate
notes: Antibody-drug conjugate
B7: CDH6-Ab (antibody, human IgG1, kappa, V domains shown)
VH: B6 VH
VL: B6 VL
notes: also called anti-human CDH6 monoclonal antibody CDH6-Ab
B8: ADC-L1-19-P1-3 (antibody, human IgG1, kappa, V domains shown)
VH: B6 VH
VL: B6 VL
modifications: drug-linker L1-19-P1 on cysteine thiols after TCEP reduction; positions not given; DAR 7.2 for the whole conjugate
notes: Antibody-drug conjugate
B9: ADC-L1-19-3 (antibody, human IgG1, kappa, V domains shown)
VH: B6 VH
VL: B6 VL
modifications: drug-linker L1-19 on cysteine thiols after TCEP reduction; positions not given; DAR 7.1 for the whole conjugate
notes: Antibody-drug conjugate
B10: ADC-L1-19-10 (antibody, human IgG1, kappa, V domains shown)
VH: QVQLRESGPGLVKPSETLSLTCTVSGFDISSYYMSWVRQPPGKGLEWIGAIGISGNAYYASWAKSRVTISRDTSKNQFSLKLSSVTAADTAVYYCARDHPTYGMDLWGPGTLVTVSS
VL: SYELTQPPSVSVAPGKTARITCEGNNIGSKAVHWYQQKPGQAPVLVIYDDDERPSGIPERFSGSNSGNTATLTISRVEAGDEADYYCQVWDSSAYVFGGGTKLTVLR
modifications: drug-linker L1-19 on cysteine thiols after TCEP reduction; positions not given; DAR 7.2 for the whole conjugate
notes: Antibody-drug conjugate
B11: ROR1-Ab-3 (antibody, human IgG1, kappa, V domains shown)
VH: B10 VH
VL: B10 VL
notes: also called anti-human ROR1 monoclonal antibody ROR1-Ab-3
B12: ADC-L1-19-P1-10 (antibody, human IgG1, kappa, V domains shown)
VH: B10 VH
VL: B10 VL
modifications: drug-linker L1-19-P1 on cysteine thiols after TCEP reduction; positions not given; DAR 8.0 for the whole conjugate
notes: Antibody-drug conjugate
B13: ADC-L1-0-10 (antibody, human IgG1, kappa, V domains shown)
VH: B10 VH
VL: B10 VL
modifications: drug-linker L1-0 on cysteine thiols after TCEP reduction; positions not given; DAR 7.5 for the whole conjugate
B14: ADC-L1-0-9 (antibody, human IgG1, kappa, V domains shown)
VH: EVQLLESGGGLVQPGGSLRLSCAASGFTFSNYAMSWVRQAPGKGLEWVSSISHNSGSTYYADSVKGRFTISRDNSKNTLYLQMNSLRAEDTAVYYCAKFISARKSLGRSYSNGMDVWGQGTLVTVSS
VL: QSVLTQPPSASGTPGQRVTISCTGSSSNIGSNDVTWYQQLPGTAPKLLIYADSKRPSGVPDRFSGSKSGTSASLAISGLRSEDEADYYCGTWDYSLSGYVFGGGTKLTVLR
modifications: drug-linker L1-0 on cysteine thiols after TCEP reduction; positions not given; DAR 5.5 for the whole conjugate
B15: ROR1-Ab-2 (antibody, human IgG1, kappa, V domains shown)
VH: B14 VH
VL: B14 VL
notes: also called anti-human ROR1 monoclonal antibody ROR1-Ab-2

The target of the first assay is T1, CDH6 on OVCAR3 cells. Kind of assay: flow cytometry (FACS) on OVCAR3 cells, Alexa Fluor 647 anti-human Fc secondary antibody, MFI, four-parameter fit. The method, then:
OVCAR3 cells were collected, counted, and plated in a 96-well plate (Corning, 3795) at 2×10⁵ cells/well. The serially diluted sample to be detected was added and incubated at 4° C. for 1 h. After the mixture was washed twice with ice PBS, Alexa Fluor-647 Goat anti-human Fc secondary antibody (JacksonImmuno, 109-605-098) was added, and the mixture was incubated at 4° C. for 1 h. After the mixture was washed twice with ice PBS, the cells were resuspended, and the mean fluorescence intensity (MFI) was analyzed using a flow cytometer (BD FACSCanto™ II). Data were analyzed by four-parameter curve fitting using Graphpad Prism software to give EC₅₀ values.
A general note: In flow cytometry, cells or beads pass a laser one at a time.
As to B1, the concentration for a half-maximal effect (EC50) amounted to 0.51 nM. This lies in the sub-nanomolar range. Same read-out and setting: then B2, with 0.63 nM; and B3, with 0.85 nM. The same measure, in the same setting: then B4, with 0.8 nM. On the same count and under the same terms, in the case of B5 it was 0.78 nM; in that of B6, 0.49 nM; in that of B7, 0.71 nM. In the case of B8, the EC50 came to 0.36 nM. Still for that read-out and setting: in the case of B9 it was 0.34 nM.

A further assay addresses human ROR1 on stably transfected cell strain MCF7-hROR1 clone 2G2 (human, UniProt Q01973 30-406). The assay is described as follows: flow cytometry (FACS) on MCF7-hROR1 clone 2G2 cells, 5-fold dilutions from 100 nM, Alexa Fluor 647 anti-human IgG secondary antibody, four-parameter fit. The method, then:
Stably transfected cell strain MCF7-hROR1 clone 2G2 constructed in the steps described above was expanded to a logarithmic growth phase in a T-75 cell culture flask, and the medium supernatant was discarded after centrifugation. The cell pellet was washed twice with PBS. […] After the mixture was washed twice with PBS, a secondary antibody was added: Alexa Fluor® 647 AffiniPure Goat Anti-Human IgG (H+L) (purchased from Jackson Immuno, Cat. No: 109-605-088), and the mixture was incubated at 4° C. for 1 h. After the mixture was washed twice with PBS, the cells were resuspended, and detected and analyzed by FACS (FACS Canto™, purchased from BD Biosciences). Data were analyzed by four-parameter curve fitting using Graphpad Prism software to give EC₅₀ values.
B10 registered a concentration giving a half-maximal response (EC50) of 0.98 nM. In other words, the sub-nanomolar range. Still for that read-out and setting: in the case of B11 it was 0.91 nM; in that of B12, 0.57 nM. On the same count and under the same terms, in the case of B13 it was 1.25 nM.

As for B14, the EC50 was found to be 0.43 nM. Compared with the last molecule, the EC50 is about 2.9-fold lower.

As for B15, a half-maximal effect (EC50) was put at 0.98 nM.
